Literature values, collected in publication PMC6983177.

Legend:
[1] = biological target: RNA polymerase II CTD phosphopeptide (Homo sapiens) (UniProt P24928); experiment: isothermal titration calorimetry
pCDC25c (Homo sapiens) = pCDC25c (Homo sapiens) (UniProt P30307)
UniProt P30307, sequence (P30307 2-473): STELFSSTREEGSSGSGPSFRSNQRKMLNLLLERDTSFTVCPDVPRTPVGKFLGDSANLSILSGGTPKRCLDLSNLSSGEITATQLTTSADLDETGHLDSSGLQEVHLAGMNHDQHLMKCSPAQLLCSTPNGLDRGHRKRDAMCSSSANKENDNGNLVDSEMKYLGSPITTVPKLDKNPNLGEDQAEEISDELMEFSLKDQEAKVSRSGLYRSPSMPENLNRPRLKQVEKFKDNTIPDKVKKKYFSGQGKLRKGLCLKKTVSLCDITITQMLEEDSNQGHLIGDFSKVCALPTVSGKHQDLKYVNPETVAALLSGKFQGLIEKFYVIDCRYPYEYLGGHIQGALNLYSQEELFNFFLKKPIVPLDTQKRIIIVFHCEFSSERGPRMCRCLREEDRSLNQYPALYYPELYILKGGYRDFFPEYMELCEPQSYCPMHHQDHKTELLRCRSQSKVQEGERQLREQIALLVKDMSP

Kd [1]: 35 µM | Kd (pCDC25c (Homo sapiens)): 8 µM
Substance: Pin1 WW (from UniProt Q13526)
